Here are results for 31 sequences from the supplement of paper PMC9170038.

For this series, the system named is MS2 coat protein. Briefly: apparent KD of MS2 coat protein; designed switch direction (-1 OFF switch, 1 ON switch): -1; higher = weaker reporter binding. In short, it runs like this: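 Each step of the titration lasted 0.8–1.5 h at the lowest concentration and 10–20 min at the highest. The protein, SNAP-549-labelled MS2 coat protein, went from 0.7 or 1.5 nM doubling to 3 µM over RNA switches transcribed on Illumina chips by stalled E. coli RNA polymerase. Normalised cluster fluorescence was curve-fitted, and the per-design median over clusters is given as apparent KD.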

Where [1] appears, read: Eterna round: R95, input ligand: microRNA oligo, concentration not stated.
Where [2] appears, read: input ligand: microRNA oligo, concentration not stated.
[3] abbreviates: Eterna round: R95, input ligand: FMN 200 uM.
The mark [4] stands for this setting: Eterna round: R95, input ligand: none.

Regarding “GCACUGCGAGGAUAUACAUGAGGAUCACCCAUGUGUCGGCAGCCAUGCCAGUACAAAUGUAGAAGGCGCGUAAA [EX3 #55] (Eterna round: R97, puzzle: Exclusion 3)”, the “apparent KD of MS2 coat protein” value was 88.1 nM (input ligand: FMN 200 uM) and 27 nM (input ligand: none).

In the case of “AAUUUGCAAGCGAGAUCCCACAUGAGGAUCACCCAUGUGCUCGUCUUAUAAGGUACUGUGACGAUAGUCACGGUACC [Mat - Sensor, turn-off var - Eli Mod - D93] (Eterna round: R97, puzzle: Sensor, turn-off variant 1)”, the “apparent KD of MS2 coat protein” value is, setting by setting: (input ligand: FMN 200 uM) 14.1 nM; (input ligand: none) 14.3 nM.

Turning to “AUUUAGCAAGUUAGAUCCUACAUGAGGAUCACCCAUGUUGUUCGUCUUAUUUGAAGACAACACAAAAGUGUUGUCUU [Omei Mir OFFv1 B3] (Eterna round: R97, puzzle: Sensor, turn-off variant 1)”, the “apparent KD of MS2 coat protein” value by setting is: (input ligand: FMN 200 uM) 107 nM; (input ligand: none) 100 nM.

For the sequence “GGUUAUUGCAAGGAUAUGCUUUUUUUUUAUAUUGCAGAAGGUGCAACAUGAGGAUCACCCAUGUUGGAGGGUUU [JR_E6_Sub022] (puzzle: Exclusion 6)”, the “apparent KD of MS2 coat protein” value under setting [1] stood at 26 nM.

As to “AAUAACAAGCCGAUCCUCCACAUGAGGAUCACCCAUGUGUUCGUCUUGUAAAGUACUAUCACGAAAGUGAUAGUACA (Eterna round: R97, puzzle: Sensor, turn-off variant 1)”, the “apparent KD of MS2 coat protein” value worked out at 23 nM (input ligand: FMN 200 uM) and 30.5 nM (input ligand: none).

Take “CAGCCCUGAGGAUAUACAUGAGGAUCACCCAUGUGAAGAACGGGAAACGAAACCCUCAGUAGAAGGCGGGUCAU [Eternabot (Original) Solution 14] (Eterna round: R97, puzzle: Exclusion 3)”: the “apparent KD of MS2 coat protein” value is 131 nM (input ligand: FMN 200 uM) and 58.9 nM (input ligand: none).

As to “GGCAUGUAAGGAUAUGCCACUGAGUGCUUUGCGCUCAGGAAGCAGAAGGUACAUGAGGAUCACCCAUGUGAUAA [jl-ex4-4.52 ViennaUCT mod] (Eterna round: R97, puzzle: Exclusion 4)”, the “apparent KD of MS2 coat protein” value is, setting by setting: (input ligand: FMN 200 uM) 109 nM; (input ligand: none) 714 nM.

On to “CCACUGCAUUGCAGUGUCGACAUGAGGAUCACCCAUGUGUCGCAGGCGCCGAGCUUUCCGCUCGUUACGUAUCGACG [Arorin] (Eterna round: R96, puzzle: Sensor v2, turn-off variant)”, for which the “apparent KD of MS2 coat protein” value runs as follows: (input ligand: FMN 200 uM) 60.3 nM; under setting [2], 42.1 nM; (input ligand: none) 60.7 nM.

For “GUGAAACAUGAGGAUCACCCAUGUGAGGAUAUGUUUUAGUACUGCAGACAGUACAUCUAUAGAAGGCACAAUGG [Mat - Mod of JL D74] (puzzle: Exclusion 1)”, the “apparent KD of MS2 coat protein” value under setting [1] amounted to 37 nM.

As to “AAUAACAAGCCGAUCCUUUACAUGAGGAUCACCCAUGUGCUCGUCUUGUAAAGUACUAUCACGAAAGUGAUAGUACA (Eterna round: R97, puzzle: Sensor, turn-off variant 1)”, the “apparent KD of MS2 coat protein” value runs as follows: (input ligand: FMN 200 uM) 28 nM; (input ligand: none) 27 nM.

In the case of “UAUUUACAUGAGGAUCACCCAUGUCAGGAUAUGCGUCGAUCGUCGAAAGACGAUAGCCGCAGAAGGGACAAUAU [LRO-Excl01-20 mod derived from EliFisker 4.24] (Eterna round: R97, puzzle: Exclusion 1)”, the “apparent KD of MS2 coat protein” value by setting is: (input ligand: FMN 200 uM) 246 nM; (input ligand: none) 83.1 nM.

For the sequence “CUGAGAAUAGGAUAUACUAACAAUGGAGUAGCUUCACGUCAACAUGAGGAUCACCCAUGUAGAAGGGUUAGCGG [Eternabot (L1) Solution 33] (Eterna round: R97, puzzle: Exclusion 2)”, the “apparent KD of MS2 coat protein” value by setting is: (input ligand: FMN 200 uM) 25 nM; (input ligand: none) 30 nM.

Consider “UUAGUGUAAGGAUAUCCUAUUACGAAGUAGCAACGGUAGAGGGAGAAGGUACAUGAGGAUCACCCAUGUGUCGC [Eternabot (L2) Solution 38] (Eterna round: R97, puzzle: Exclusion 4)”, for which the “apparent KD of MS2 coat protein” value by setting is: (input ligand: FMN 200 uM) 26.3 nM; (input ligand: none) 24.5 nM.

Consider “UAAUACAAGUAGAGAUUCUACAUGAGGAUCACCCAUGUGCUCGUCUUAUAAAGUACUAUCACGAAAGUGAUAGUACU [Mat - Sensor v3 - turn-off var 1 - Eli Mod - D98] (puzzle: Sensor v3, turn-off variant 1)”, for which the “apparent KD of MS2 coat protein” value runs as follows: under setting [3], 18.3 nM; under setting [1], 192 nM; under setting [4], 17.4 nM.

Consider “CCUCCGGUACGAGGAUAUCUGACGGCCGCCGGAGGAGAAGGCGUACAUGAGGAUCACCCAUGUCCAGCGUGCACCACGCUGGUU [Usbius] (Eterna round: R96, puzzle: Exclusion NG 1)”, for which the “apparent KD of MS2 coat protein” value is, setting by setting: (input ligand: FMN 200 uM) 119 nM; under setting [2], 38.1 nM; (input ligand: none) 44.9 nM.

For the sequence “AGAUGUAGAAACCGAUCCUACAUGAGGAUCACCCAUGUAGCAAGACGUGCACGCGAAGCUCGUCAGACUACCAGAAG [salish99_TOv1_r3_082] (puzzle: Sensor v3, turn-off variant 1)”, the “apparent KD of MS2 coat protein” value worked out at 270 nM under setting [3], 188 nM under setting [1] and 352 nM under setting [4].

As for “GUUGUUACUGAGGAUAUUAUUUUAUUCGAUUGAUAAGAAGGCAGUACAUGAGGAUCACCCAUGUGGGUAGCUAG [Polaris20] (Eterna round: R97, puzzle: Exclusion 6)”, the “apparent KD of MS2 coat protein” value came to 434 nM (input ligand: FMN 200 uM) and 95.5 nM (input ligand: none).

As to “GGAUCGAGUGUGAGGAUAUACCUAUGGAAACAUAGGUAGAAGGCACAUGAGGAUCACCCAUGUGUUCCCGGUCC [Mat - Exclusion 4 - Eli Mod - D16] (Eterna round: R97, puzzle: Brourd's mod of Exclusion 4)”, the “apparent KD of MS2 coat protein” value (input ligand: FMN 200 uM) came to 485 nM and the “apparent KD of MS2 coat protein” value (input ligand: none) was found to be 50.8 nM.

With “AGUGCUAACACGUUGGUGUUAGUACCAUAAGCUUGUGAUACAUGAGGAUCACCCAUGUCCUCAUAAGCUCGUCUUAU [salish99_TOv2_r2_098] (puzzle: Sensor v3, turn-off variant 2)”, the “apparent KD of MS2 coat protein” value under setting [3] was 30.6 nM, the “apparent KD of MS2 coat protein” value under setting [1] is 508 nM and the “apparent KD of MS2 coat protein” value under setting [4] was 29.4 nM.

Consider “AAUUAGCAAGCAAGAUCCCACAUGAGGAUCACCCAUGUGCUCGUCUUAUAAGGUACUGUGACGAUAGUCACGGUACC [Mat - Sensor, turn-off var - Eli Mod - D49] (Eterna round: R97, puzzle: Sensor, turn-off variant 1)”, for which the “apparent KD of MS2 coat protein” value is, setting by setting: (input ligand: FMN 200 uM) 42.9 nM; (input ligand: none) 49.4 nM.

For “UGUACUAUGCGUGCUGACAUGCGUAGUGCAGCAGGUGUAACAUGAGGAUCACCCAUGUCCUCAUUUGCUCGUCUUAU [SL-sv3-2.06 JL mod] (puzzle: Sensor v3, turn-off variant 2)”, the “apparent KD of MS2 coat protein” value worked out at 194 nM under setting [3], 176 nM under setting [1] and 273 nM under setting [4].

Consider “CUGGACAGAGGAUAUUGUGCUGCUGACAUGAGGAUCACCCAUGUAUGUUAACUCGGCCGUCGAGAAGGCUGACAGG [BotMod 17 - Jieux - Exclusion 5] (Eterna round: R97, puzzle: Exclusion 5)”, for which the “apparent KD of MS2 coat protein” value by setting is: (input ligand: FMN 200 uM) 14.3 nM; (input ligand: none) 19.2 nM.

Consider “ACUCCAUAUGUGAGGAUAUGGAAAGAAAAUAAAAUCCAGAAGGCACAUGAGGAUCACCCAUGUACCGCAGGGAC [BmEX4 A.29] (Eterna round: R97, puzzle: Brourd's mod of Exclusion 4)”, for which the “apparent KD of MS2 coat protein” value runs as follows: (input ligand: FMN 200 uM) 17.7 nM; (input ligand: none) 14.5 nM.

For the sequence “GCAGGUUAAGUCAGGAUAUACCUAUGGAUACAUAGGUAGAAGGGACAUGAGGAUCACCCAUGUGCCUCACCUGC [Fiskers BMX 4 - 19] (puzzle: Brourd's mod of Exclusion 4)”, under setting [1], the “apparent KD of MS2 coat protein” value is 16.8 nM.

For the sequence “CUCCGGCCUGUAGGAUAUGGAUCCGAUUAGGAUCCAGAAGGACAUGAGGAUCACCCAUGUACAUGUAAACAGUCAUCACCGGAC [salish99_ExNG1_r04_203] (Eterna round: R96, puzzle: Exclusion NG 1)”, the “apparent KD of MS2 coat protein” value runs as follows: (input ligand: FMN 200 uM) 23.8 nM; under setting [2], 15.2 nM; (input ligand: none) 16.7 nM.

Turning to “CCAAGCUACUUCAUUAUCCACAUGAGGAUCACCCAUGUCUUGGCAAUUAUGACCUGCCCGUCAGGAGCUCGUCUUAU [Sensor-V1 #39] (Eterna round: R97, puzzle: Sensor, turn-off variant 1)”, the “apparent KD of MS2 coat protein” value by setting is: (input ligand: FMN 200 uM) 113 nM; (input ligand: none) 55.2 nM.

For the sequence “UAGGUACAUGAGGAUCACCCAUGUGAGGAUAUAGAUGAAGAUUGCGAGAGGGAGAGGACUAGAAGGCACAGUGG [JR_Exclu1_Sub036] (puzzle: Exclusion 1)”, under setting [1], the “apparent KD of MS2 coat protein” value is 30.9 nM.

“UGCUACGGAGGAUAUACAUGAGGAUCACCCAUGUGAUAGAUUAUCGCGAGAGCGUAAUGUAGAAGGCCGUAGCU [jl-ex3-4.12 jl mod] (Eterna round: R97, puzzle: Exclusion 3)”: the “apparent KD of MS2 coat protein” value turned out to be 506 nM (input ligand: FMN 200 uM) and 56 nM (input ligand: none).

With “UGUACCAUAGGAUAUACAUGAGGAUCACCCAUGUUAAUACGAUAUGUAAUGGUUACUUGUAGAAGGAUGAAAAG [Eternabot (L1) Solution 29] (Eterna round: R97, puzzle: Exclusion 3)”, the “apparent KD of MS2 coat protein” value runs as follows: (input ligand: FMN 200 uM) 14.9 nM; (input ligand: none) 11 nM.

Consider “AAGUGUGCCUAGGAUAUGUUCGGCCAAGGUCAUACAGAAGGAGGCACAUGAGGAUCACCCAUGUAGUGUCCUAC [Soququis] (puzzle: Exclusion 6)”, for which the “apparent KD of MS2 coat protein” value under setting [1] is 59.6 nM.

On to “UGAGUGCUGCGAGGAUAUACAUGAGGAUCACCCAUGUAUACCUGUGAGGCUUUGCCUCACAGGUAGUAGAAGGCGCAGUACUCU [Mat - Exclusion NG 2 - Mod of JL - D44] (Eterna round: R96, puzzle: Exclusion NG 2)”, for which the “apparent KD of MS2 coat protein” value (input ligand: FMN 200 uM) turned out to be 13.1 nM, the “apparent KD of MS2 coat protein” value under setting [2] stood at 9.11 nM and the “apparent KD of MS2 coat protein” value (input ligand: none) is 12.8 nM.
